# ± gives the standard deviation of the averaged measurements.
# Tested on: Saccharomyces cerevisiae
# Assay: protein stability index of tFT-peptide fusion (C-terminal peptide) (PSI (0-1 scale)); higher = more stable (slower turnover)
# Settings: genetic background: wild type; temperature: 30 C
# 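Further: PSI is a weighted mean of sequencing reads over stability bins, variants kept only with over 10 reads, mCherry proximal and sfGFP distal, peptide attached via GGGS linker.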
row,Sequence,protein stability index
1,EFANKGIKINTA,0.625 ± 0.019
2,PWDPDTPIPPRP,0.716 ± 0.012
3,PPFPPPPPPPLS,0.714 ± 0.05
4,CNCGGRGCGWMR,0.651 ± 0.025
5,ALLFCVCCGFFF,0.541 ± 0.013
6,RLLYGICLLGAS,0.558 ± 0.092
7,PRSPPRSLFFPC,0.648 ± 0.047
8,NESGWHNLLMSV,0.708 ± 0.0097
9,QVILQHSLGLLD,0.707 ± 0.014
10,RPGPRAASADCP,0.72 ± 0.025
11,KRGKNKKRKQKK,0.716 ± 0.0076
12,DCPAVLLYAVNW,0.501 ± 0.054
13,RLLASIRAAQAS,0.525 ± 0.1
14,PFAGLFFFFVPF,0.58 ± 0.033
15,HTKYISRRRTKR,0.706 ± 0.013
16,GGGLGRRLLGGR,0.69 ± 0.078
17,RFYSKDLVHLST,0.6656 ± 0.0031
18,LPFPSCYLRASL,0.779 ± 0.033
19,FPPPPPRPPRLP,0.68 ± 0.075
20,VCRGAIPIERFR,0.715 ± 0.15
21,RRPAPTRPPHTK,0.711 ± 0.013
22,VASLGFVGFCRF,0.713 ± 0.06
23,GRGGIGDGGPVW,0.6395 ± 0.00092
24,PLHYPTPCHPLP,0.726 ± 0.052
25,KFIVQNENSGQC,0.677 ± 0.041
26,FFACHDGYWCGC,0.778 ± 0.036

row,Sequence,protein stability index
1,PPPSPPSGALTP,0.763 ± 0.053
2,KTHTIGPSPYYD,0.649 ± 0.0088
3,GTHGVGGNIDLT,0.648 ± 0.013
4,GGVGVYSVMVGG,0.575 ± 0.015
5,IHQDGEQKETRK,0.6948 ± 0.0047
6,PTLDATLSVASG,0.667 ± 0.036
7,PPSALPHPPLPP,0.718 ± 0.028
8,HWVVRGGSRRVV,0.7056 ± 0.0045
9,PPFRPRPPPPSA,0.812 ± 0.17
10,PPPTRAPPPKPG,0.621 ± 0.028
11,GGLIWRHGGGRG,0.688 ± 0.023
12,ALPPPRPPPPSP,0.692 ± 0.034
13,WRVMCLQRCSGV,0.541 ± 0.011
14,LGPPLLDLASLR,0.719 ± 0.035
15,CLAPSIPPPLSS,0.702 ± 0.036
16,EGGGASELGAPN,0.567 ± 0.095
17,LYNFLFLLPYSL,0.647 ± 0.13
18,PSLCFLPPPPSP,0.686 ± 0.0076
19,TLSSLVGACLYV,0.614 ± 0.038
20,CCLFLACANFFV,0.551 ± 0.031
21,PATPPPLPPLSP,0.701 ± 0.054
22,VRRGHEGCGLRY,0.717 ± 0.025
23,GGGARGGGGWGG,0.631 ± 0.097
24,PLPDPPPTPSGT,0.682 ± 0.058
25,RVWRLIGFHVSS,0.713 ± 0.012
26,TFPRRCILNIQI,0.635 ± 0.024

row,Sequence,protein stability index
1,PRVLVVSAVNTV,0.695 ± 0.02
2,GGGGRGMWGIFG,0.676 ± 0.045
3,YAGDPEAAAEWG,0.68 ± 0.052
4,VSCLPFLDLMSW,0.701 ± 0.012
5,PIDYRPEPYALP,0.775 ± 0.034
6,GGAGGVVGGGGG,0.616 ± 0.018
7,PSSLSSLPPPSP,0.669 ± 0.024
8,CGTPDLGLLRAT,0.74 ± 0.054
9,RPLPPLPPPSCP,0.71 ± 0.046
10,FLLCLWIFFFGS,0.482 ± 0.028
11,PPPLSLSCPFRP,0.712 ± 0.052
12,TRLDLIDSLRHL,0.731 ± 0.044
13,PGPTNSSLTASD,0.7667 ± 0.0037
14,SSCWRAWAVNGL,0.677 ± 0.063
15,IADDSSHGFRGE,0.7161 ± 0.0064
16,QKKKKLAYVGKR,0.659 ± 0.012
17,LDLLIVNFFNLV,0.69 ± 0.13
18,RGRPRRGGGVSG,0.727 ± 0.047
19,FGQSKFAMKGVR,0.708 ± 0.0086
20,WFPSSLPLTCIQ,0.651 ± 0.084
21,VGSDICLGLCLL,0.871 ± 0.02
22,GFWSRIGDLFRG,0.698 ± 0.037
23,TLRPKASPPAAL,0.642 ± 0.021
24,FDDSNSRTGPVQ,0.692 ± 0.11
25,PKKTTIQRDKTN,0.607 ± 0.027
26,GCGREGGGLDKD,0.781 ± 0.094

row,Sequence,protein stability index
1,RLWSSFKRHGAA,0.743 ± 0.022
2,FLGGDVVGVFVG,0.658 ± 0.059
3,VAWCYCSGDTGV,0.7 ± 0.035
4,ITSWCNVFLGRA,0.71 ± 0.018
5,ADVWSCAFCFDC,0.595 ± 0.033
6,GDGGCKVEWVRG,0.724 ± 0.012
7,RRGRNDLEESMR,0.702 ± 0.0078
8,TRTELGKRWIRR,0.697 ± 0.061
9,AGSQEDGRSIKG,0.669 ± 0.024
10,GPFHILSSATRP,0.705 ± 0.054
11,AGVGMGAVAGGS,0.705 ± 0.02
12,AVPRPSPPPPPL,0.674 ± 0.0086
13,SARRAALGVWVV,0.636 ± 0.026
14,DDCFCGRFWVVV,0.6787 ± 0.0032
15,KKNYEKPIRKYQ,0.642 ± 0.02
16,INVCVLSSSTAS,0.684 ± 0.079
17,IVPPPHRHRRSI,0.824 ± 0.064
18,LVGGTVYRKPSP,0.599 ± 0.025
19,VGFFLGVLLSLL,0.521 ± 0.0085
20,YGILSVRGSLSR,0.76 ± 0.065
21,GGVFWEEGAAER,0.731 ± 0.023
22,PRLGFFPFPSGP,0.709 ± 0.03
23,RSGGGRRGVGWV,0.641 ± 0.067

# From the supplement of paper PMC10724198
